Paper PMC12239584

Target: RelJ antitoxin (recombinant His-tagged) (M. tuberculosis) (UniProt P9WF24)
Test: native gel or EMSA

UniProt P9WF24, sequence (P9WF24 whole entry): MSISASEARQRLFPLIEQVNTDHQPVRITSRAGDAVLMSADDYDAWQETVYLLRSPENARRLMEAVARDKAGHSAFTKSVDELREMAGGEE

Substance “RelK toxin (recombinant His-tagged, unphosphorylated) (from UniProt P9WF08 2-85) (natural protein)” has a stoichiometry N (RelK per RelJ) of 1.
